Experimental data published in PMC8994484.

Target: ofCP (Olindias formosa)
Experiment: SEC

- stoichiometry N: 2
Substance: ofCP (natural protein)
